Experimental findings from patent KR20230108156A (dated 2023) are described below.

For experiment [1], the target named is 재조합 인간 CD40L 단백질 (recombinant human CD40L protein, Sino biological, Accession#: NP_000065.1, Cat: 10239-H08E) (human) (UniProt P29965). The experiment is described as follows: ELISA, plate coated with recombinant human CD40L 100 ng/well, 14D6 two-fold dilutions from 1000 ng/ml, anti-mouse IgG-HRP. Background: An ELISA detects its analyte on a solid surface through an enzyme-linked reagent.

Experiment [2] deals with CD40L-hFc 단백질 (Sino biological, Accession#: NP_000065.1, Cat: 10239-H01H) (human) (UniProt P29965). Description: competition, flow cytometry: 14D6 pre-mixed with CD40L-hFc (2 μg), binding to CD40 on Bjab cells read. In general terms: A flow cytometer gives signals particle by particle.
For experiment [3], the target named is T1, CD40 on CD40 표면발현 CHO 세포 (CHO cells expressing CD40 on the surface, ATCC) (UniProt P25942 21-277, limits assumed).
T1 construct: whole, on cells; also called CD40 CHO 세포
T1 sequence (P25942 21-277 limits assumed): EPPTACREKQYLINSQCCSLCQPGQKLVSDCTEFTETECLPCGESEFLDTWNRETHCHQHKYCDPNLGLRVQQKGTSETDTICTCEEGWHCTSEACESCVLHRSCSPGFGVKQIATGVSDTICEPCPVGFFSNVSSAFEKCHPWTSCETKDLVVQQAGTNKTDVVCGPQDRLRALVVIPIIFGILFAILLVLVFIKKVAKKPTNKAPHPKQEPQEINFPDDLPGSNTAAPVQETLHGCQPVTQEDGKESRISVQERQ
The experiment is described as follows: flow cytometry on CD40 CHO cells, goat anti-mouse Ig-FITC.

For experiment [4], the target named is T2, CD40L induced on T cells of human PBMC stimulated with PMA and ionomycin (human, UniProt P29965 1-261).
T2 construct: whole, on cells
T2 sequence (looked up): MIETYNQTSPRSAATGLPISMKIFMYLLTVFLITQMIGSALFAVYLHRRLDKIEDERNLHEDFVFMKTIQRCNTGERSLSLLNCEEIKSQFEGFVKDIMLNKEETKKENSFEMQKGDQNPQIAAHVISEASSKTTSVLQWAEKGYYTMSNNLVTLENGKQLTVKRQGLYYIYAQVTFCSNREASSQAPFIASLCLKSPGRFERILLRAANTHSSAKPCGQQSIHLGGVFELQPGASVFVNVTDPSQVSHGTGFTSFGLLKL
Description: flow cytometry on PMA/ionomycin-stimulated human PBMC, 0.1 μg, CD3-APC gate, anti-mouse Ig-FITC.

For experiment [5], the target named is CD40L on CD40L 표면발현 CHO 세포 (CHO cells expressing CD40L on the surface, ATCC) (UniProt P29965). The experiment is described as follows: flow cytometry on CD40L CHO cells, 0.01-0.5 μg/test.
For experiment [6] the target is unchanged. Description: cell-based or functional assay.
Experiment [7] addresses 재조합 인간 CD40L 단백질 (recombinant human CD40L protein, Sino biological, Accession#: NP_000065.1, Cat: 10239-H08E) (human) (UniProt P29965). Description: cell-based or functional assay.
The target in experiment [8] is T3, CD40L in lysates of Jurkat cells and HeLaS3 cells (32 ~ 39 kDa band) (human, UniProt P29965 1-261).
T3 construct: Denatured protein on a PVDF membrane
T3 sequence (looked up): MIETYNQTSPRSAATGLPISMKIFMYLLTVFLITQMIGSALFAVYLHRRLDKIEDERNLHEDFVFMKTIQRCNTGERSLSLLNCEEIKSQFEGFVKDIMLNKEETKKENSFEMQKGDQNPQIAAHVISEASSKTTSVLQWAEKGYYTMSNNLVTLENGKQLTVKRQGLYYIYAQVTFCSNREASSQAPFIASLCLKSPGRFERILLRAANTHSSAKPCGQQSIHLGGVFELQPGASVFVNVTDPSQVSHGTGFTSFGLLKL
The experiment is described as follows: western blot of Jurkat and HeLaS3 lysates, reducing and non-reducing, 14D6 0.5 μg/ml. (In general: Immunoblotting shows a protein as a band on a membrane.)

B1: 14D6-52-5 단일클론항체 (14D6 단클론항체, mouse) (antibody, V domains shown)
VH: QVQLQQSGAELVKPGASVKLSCKASGYTFTRYYMFWVKQRPGQGLEWIGEINPTNGDTNFNEEFKSKATLTVDKSSSTAYMQLSSLTSEDSAVYYCTRPLGSRDAMDYWGPGTSVTVSS
VL: DIVLTQSPASLAVSLGQRATISCRASQSVSSSRYSYMHWYQQKPGQPPKLLIKYASSLESGVPARFSGSGSGTDFTLNIHPVEGEDTATYYCQHSWELPWTFGGGTKLEIK
notes: Mouse monoclonal antibody from a hybridoma (Balb/c mouse immunised with recombinant human CD40L); also called 14D6 마우스항체; Mouse 14D6
For the molecule B1, the concentration at which binding is saturated in experiment [1] was > 100 ng/mL; in experiment [2], > 0.1 μg/50μl. Moreover, the amount at which blocking equals the negative control in experiment [2] was > 0.1 µg. The binding result in experiment [3] was “no binding (tested: 0.05μg/test)”; in experiment [4], “binds”; in experiment [8], “binds”. Moreover, in experiment [5], the amount at which binding is saturated was > 0.1 µg. In addition, the ICAM-1 expression on Ramos B cells co-cultured with CD40L CHO cells (flow cytometry) in experiment [6] was > 0.5 μg/test. Also, the antibody concentration for complete blocking of SEAP OD 655nm (HEK-Blue CD40L cells), CD40L 12.5ng/ml in experiment [7] is > 50 ng/mL. For the same molecule, in experiment [7], the antibody concentration for complete blocking of SEAP OD 655nm (HEK-Blue CD40L cells), CD40L printed as 12.5ng/ml a second time (25ng/ml probably meant) was > 500 ng/mL.
